# Tested on: Escherichia coli TOP10
# Assay: shrunken log2 fold change of peptide-encoding DNA abundance (4.5 h post-induction vs induction); higher = less antimicrobial activity (less host growth inhibition)
# Conditions: time post-induction: 4.5 h; library: site-saturation at positions 5, 18, 19, 20
# 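Also: peptides expressed intracellularly from a pBAD plasmid library in pooled LB shake-flask culture, induced with 0.3% L-arabinose, DNA abundance read by NGS, three biological replicates, DESeq2 with apeglm shrinkage.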
row,Sequence,shrunken log2 fold change
1,RRIRHRPPRLPRPRPRPLCHPRP,-0.44
2,RRIRNRPPRLPRPRPRPGWVPRP,0.282
3,RRIRQRPPRLPRPRPRPSELPRP,-0.159
4,RRIRSRPPRLPRPRPRPMKRPRP,-0.115
5,RRIRPRPPRLPRPRPRPRVKPRP,-0.0194
6,RRIRTRPPRLPRPRPRPDCAPRP,0.719
7,RRIRLRPPRLPRPRPRPHMTPRP,-0.466
8,RRIRRRPPRLPRPRPRPANWPRP,0.387
9,RRIRGRPPRLPRPRPRPGEAPRP,1.48
10,RRIRTRPPRLPRPRPRPNLWPRP,-0.0774
11,RRIRERPPRLPRPRPRPFYSPRP,-0.795
12,RRIRRRPPRLPRPRPRPIHVPRP,0.03
13,RRIRPRPPRLPRPRPRPNGHPRP,-0.0534
14,RRIRHRPPRLPRPRPRPAAAPRP,0.443
15,RRIRHRPPRLPRPRPRPKMGPRP,-0.00141
16,RRIRCRPPRLPRPRPRPYKWPRP,-0.636
17,RRIRYRPPRLPRPRPRPDPEPRP,-0.345
18,RRIRDRPPRLPRPRPRPPKWPRP,0.27
19,RRIRNRPPRLPRPRPRPLSYPRP,-0.319
20,RRIRFRPPRLPRPRPRPELFPRP,0.15
21,RRIRARPPRLPRPRPRPTPTPRP,0.968
22,RRIRARPPRLPRPRPRPPQDPRP,1.13
23,RRIRPRPPRLPRPRPRPGTSPRP,-0.0162
24,RRIRYRPPRLPRPRPRPCIKPRP,1.75
25,RRIRQRPPRLPRPRPRPPWNPRP,0.0241

row,Sequence,shrunken log2 fold change
1,RRIRYRPPRLPRPRPRPDYMPRP,-0.761
2,RRIRDRPPRLPRPRPRPYKDPRP,-0.221
3,RRIRNRPPRLPRPRPRPFMKPRP,-0.0163
4,RRIRFRPPRLPRPRPRPRQSPRP,0.443
5,RRIRWRPPRLPRPRPRPECAPRP,0.852
6,RRIRHRPPRLPRPRPRPQRDPRP,0.000147
7,RRIRSRPPRLPRPRPRPPYRPRP,-0.119
8,RRIRQRPPRLPRPRPRPVAKPRP,0.2
9,RRIRFRPPRLPRPRPRPQMMPRP,-0.313
10,RRIRRRPPRLPRPRPRPENYPRP,0.0652
11,RRIRWRPPRLPRPRPRPNNGPRP,-0.165
12,RRIRFRPPRLPRPRPRPKAPPRP,0.453
13,RRIRGRPPRLPRPRPRPELHPRP,1.04
14,RRIRMRPPRLPRPRPRPTICPRP,0.0136
15,RRIRMRPPRLPRPRPRPYTLPRP,-0.274
16,RRIRNRPPRLPRPRPRPQFPPRP,-0.148
17,RRIRERPPRLPRPRPRPAYQPRP,0.0953
18,RRIRKRPPRLPRPRPRPAAYPRP,0.361
19,RRIRIRPPRLPRPRPRPPTCPRP,-0.278
20,RRIRDRPPRLPRPRPRPFTDPRP,0.00624
21,RRIRERPPRLPRPRPRPMNTPRP,-0.0609
22,RRIRKRPPRLPRPRPRPPIKPRP,0.0648
23,RRIRVRPPRLPRPRPRPGGRPRP,0.317
24,RRIRERPPRLPRPRPRPQLVPRP,0.0441
25,RRIRPRPPRLPRPRPRPQETPRP,0.134

row,Sequence,shrunken log2 fold change
1,RRIRGRPPRLPRPRPRPPRIPRP,0.719
2,RRIRWRPPRLPRPRPRPAEAPRP,0.0865
3,RRIRERPPRLPRPRPRPWASPRP,-0.00133
4,RRIRRRPPRLPRPRPRPFNWPRP,0.0111
5,RRIRRRPPRLPRPRPRPGKIPRP,0.343
6,RRIRSRPPRLPRPRPRPGVCPRP,0.562
7,RRIRQRPPRLPRPRPRPYFQPRP,-0.428
8,RRIRKRPPRLPRPRPRPYWWPRP,-0.454
9,RRIRERPPRLPRPRPRPKRSPRP,-0.0414
10,RRIRCRPPRLPRPRPRPTTSPRP,-0.0643
11,RRIRCRPPRLPRPRPRPCDHPRP,0.0959
12,RRIRSRPPRLPRPRPRPIFKPRP,-0.186
13,RRIRDRPPRLPRPRPRPFLNPRP,-0.243
14,RRIRSRPPRLPRPRPRPTSTPRP,-0.236
15,RRIRGRPPRLPRPRPRPQYIPRP,-0.27
16,RRIRCRPPRLPRPRPRPRCFPRP,-0.158
17,RRIRCRPPRLPRPRPRPYLGPRP,-0.213
18,RRIRIRPPRLPRPRPRPVYWPRP,-0.208
19,RRIRLRPPRLPRPRPRPGLRPRP,0.234
20,RRIRKRPPRLPRPRPRPTQAPRP,-0.00908
21,RRIRHRPPRLPRPRPRPGFCPRP,-0.0484
22,RRIRARPPRLPRPRPRPCAKPRP,0.984
23,RRIRERPPRLPRPRPRPYTEPRP,0.0251
24,RRIRSRPPRLPRPRPRPGHWPRP,0.286
25,RRIRDRPPRLPRPRPRPTDYPRP,-0.0921

row,Sequence,shrunken log2 fold change
1,RRIRIRPPRLPRPRPRPGDEPRP,-0.0396
2,RRIRARPPRLPRPRPRPHDDPRP,-0.0805
3,RRIRDRPPRLPRPRPRPDGIPRP,-0.0113
4,RRIRNRPPRLPRPRPRPFCMPRP,-0.45
5,RRIRPRPPRLPRPRPRPWECPRP,-0.0846
6,RRIRCRPPRLPRPRPRPGGAPRP,0.462
7,RRIRERPPRLPRPRPRPPQHPRP,0.128
8,RRIRSRPPRLPRPRPRPLLQPRP,-0.227
9,RRIRIRPPRLPRPRPRPFEMPRP,-0.22
10,RRIRWRPPRLPRPRPRPQSVPRP,0.119
11,RRIRCRPPRLPRPRPRPYLHPRP,-1.18
12,RRIRERPPRLPRPRPRPYKGPRP,-0.0341
13,RRIRCRPPRLPRPRPRPDDQPRP,0.23
14,RRIRKRPPRLPRPRPRPDHSPRP,-0.148
15,RRIRLRPPRLPRPRPRPKAKPRP,0.0705
16,RRIRERPPRLPRPRPRPHHMPRP,-0.381
17,RRIRARPPRLPRPRPRPNIVPRP,0.0466
18,RRIRERPPRLPRPRPRPNWWPRP,0.196
19,RRIRHRPPRLPRPRPRPHWPPRP,-0.25
20,RRIRMRPPRLPRPRPRPLSGPRP,0.815
21,RRIRKRPPRLPRPRPRPRQVPRP,0.029
22,RRIRWRPPRLPRPRPRPTDMPRP,0.00348
23,RRIRPRPPRLPRPRPRPGVRPRP,0.116
24,RRIRHRPPRLPRPRPRPIYLPRP,-0.211
25,RRIRARPPRLPRPRPRPFPLPRP,-0.0297

row,Sequence,shrunken log2 fold change
1,RRIRRRPPRLPRPRPRPWWFPRP,-0.378
2,RRIRTRPPRLPRPRPRPFEYPRP,-0.0571
3,RRIRGRPPRLPRPRPRPLQWPRP,0.534
4,RRIRVRPPRLPRPRPRPGLMPRP,0.0219
5,RRIRARPPRLPRPRPRPCQGPRP,-0.11
6,RRIRLRPPRLPRPRPRPMFKPRP,-0.245
7,RRIRRRPPRLPRPRPRPRKSPRP,0.339
8,RRIRLRPPRLPRPRPRPNYGPRP,-0.0135
9,RRIRIRPPRLPRPRPRPHFPPRP,0.00276
10,RRIRWRPPRLPRPRPRPGEYPRP,0.147
11,RRIRYRPPRLPRPRPRPIAGPRP,-0.107
12,RRIRPRPPRLPRPRPRPYGRPRP,-0.213
13,RRIRGRPPRLPRPRPRPYICPRP,-0.423
14,RRIRQRPPRLPRPRPRPSQNPRP,-0.383
15,RRIRPRPPRLPRPRPRPLYWPRP,-0.0211
16,RRIRRRPPRLPRPRPRPYRIPRP,-0.594
17,RRIRNRPPRLPRPRPRPLWKPRP,-0.422
18,RRIRKRPPRLPRPRPRPSTSPRP,-0.0896
19,RRIRQRPPRLPRPRPRPVTTPRP,0.0606
20,RRIRDRPPRLPRPRPRPENTPRP,0.17
21,RRIRTRPPRLPRPRPRPLGNPRP,-0.159
22,RRIRRRPPRLPRPRPRPRLIPRP,0.874
23,RRIRWRPPRLPRPRPRPDRSPRP,0.0405
24,RRIRSRPPRLPRPRPRPTQHPRP,0.376
25,RRIRLRPPRLPRPRPRPTHNPRP,-0.0209

row,Sequence,shrunken log2 fold change
1,RRIRVRPPRLPRPRPRPGEWPRP,-0.00804
2,RRIRTRPPRLPRPRPRPQGNPRP,-0.164
3,RRIRCRPPRLPRPRPRPFCCPRP,-0.175
4,RRIRVRPPRLPRPRPRPEEQPRP,0.0234
5,RRIRMRPPRLPRPRPRPVNHPRP,-0.327
6,RRIRNRPPRLPRPRPRPLMPPRP,-0.173
7,RRIRVRPPRLPRPRPRPSYFPRP,-0.131
8,RRIRWRPPRLPRPRPRPALSPRP,-0.0314
9,RRIRHRPPRLPRPRPRPSMLPRP,-0.539
10,RRIRFRPPRLPRPRPRPRWCPRP,0.14
11,RRIRDRPPRLPRPRPRPYLWPRP,-0.0398
12,RRIRARPPRLPRPRPRPKNTPRP,-0.0664
13,RRIRIRPPRLPRPRPRPQDMPRP,-0.0502
14,RRIRDRPPRLPRPRPRPINWPRP,-0.044
15,RRIRCRPPRLPRPRPRPGGRPRP,0.404
16,RRIRARPPRLPRPRPRPWYPPRP,-0.11
17,RRIRTRPPRLPRPRPRPCLAPRP,-0.307
18,RRIRFRPPRLPRPRPRPGMVPRP,-0.0783
19,RRIRTRPPRLPRPRPRPFRDPRP,-0.205
20,RRIRWRPPRLPRPRPRPMVGPRP,0.171
21,RRIRNRPPRLPRPRPRPFADPRP,0.0675
22,RRIRQRPPRLPRPRPRPIQMPRP,-0.0176
23,RRIRLRPPRLPRPRPRPHEDPRP,-0.682
24,RRIRIRPPRLPRPRPRPVHNPRP,-0.357
25,RRIRLRPPRLPRPRPRPHSCPRP,-0.884

# — the supplement of paper PMC9112550, “Optimization of the antimicrobial peptide Bac7 by deep mutational scanning” (BMC Biology, 2022)
